Biological target: CaV1.2 IQ domain (Homo sapiens, UniProt Q13936, Ca2+)
Test: ITC

Sequence of CaV1.2 IQ domain (Q13936 1665-1685): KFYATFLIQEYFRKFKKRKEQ

B1: CaBP1 C-lobe (protein)
chain: ADMIGVKELRDAFREFDTNGDGEISTSELREAMRKLLGHQVGHRDIEEIIRDVDLNGDGRVDFEEFVRMMSR
Q: B1 was tested. Which Kd did it give?
A: 10.5 nM

Reference: article PMC3839849 (2013)
